Tests used:
human IL-17A [1] = molecular target: T1, human IL-17A (human); test: SPR, capture setup
T1 chain: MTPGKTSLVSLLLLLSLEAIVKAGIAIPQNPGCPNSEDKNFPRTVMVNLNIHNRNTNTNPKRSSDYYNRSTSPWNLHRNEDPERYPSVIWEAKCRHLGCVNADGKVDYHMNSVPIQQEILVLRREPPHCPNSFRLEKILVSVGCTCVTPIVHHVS

human IL-17A [2] = molecular target: T1, human IL-17A; test: SPR, direct setup
IL-17F = molecular target: T2, IL-17F (human); test: competition ELISA
T2 chain: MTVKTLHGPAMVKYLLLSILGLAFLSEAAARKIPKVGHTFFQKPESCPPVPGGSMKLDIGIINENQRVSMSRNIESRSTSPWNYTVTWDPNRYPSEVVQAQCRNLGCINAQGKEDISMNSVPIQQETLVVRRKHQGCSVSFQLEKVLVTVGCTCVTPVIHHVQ

IL-17B = molecular target: T3, IL-17B (human); test: competition ELISA
T3 chain: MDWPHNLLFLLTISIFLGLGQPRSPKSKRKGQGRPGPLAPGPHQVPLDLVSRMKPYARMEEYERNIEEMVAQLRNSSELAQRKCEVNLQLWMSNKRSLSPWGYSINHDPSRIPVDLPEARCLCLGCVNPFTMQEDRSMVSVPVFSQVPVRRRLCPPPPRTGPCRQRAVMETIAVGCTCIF

IL-17C = molecular target: T4, IL-17C (human); test: competition ELISA
T4 chain: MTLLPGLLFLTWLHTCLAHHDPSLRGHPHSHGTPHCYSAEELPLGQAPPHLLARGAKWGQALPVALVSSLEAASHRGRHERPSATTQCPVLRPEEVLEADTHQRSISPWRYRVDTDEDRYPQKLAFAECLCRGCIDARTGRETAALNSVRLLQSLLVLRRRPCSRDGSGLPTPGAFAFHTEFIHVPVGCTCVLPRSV

IL-17E = molecular target: T5, IL-17E (human); test: competition ELISA
T5 chain: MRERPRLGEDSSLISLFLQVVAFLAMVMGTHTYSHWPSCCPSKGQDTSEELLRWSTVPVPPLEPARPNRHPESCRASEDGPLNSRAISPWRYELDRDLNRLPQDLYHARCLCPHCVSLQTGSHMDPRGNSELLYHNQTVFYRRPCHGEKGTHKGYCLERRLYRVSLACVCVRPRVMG

IL-17D = molecular target: T6, IL-17D (human); test: competition
T6 chain: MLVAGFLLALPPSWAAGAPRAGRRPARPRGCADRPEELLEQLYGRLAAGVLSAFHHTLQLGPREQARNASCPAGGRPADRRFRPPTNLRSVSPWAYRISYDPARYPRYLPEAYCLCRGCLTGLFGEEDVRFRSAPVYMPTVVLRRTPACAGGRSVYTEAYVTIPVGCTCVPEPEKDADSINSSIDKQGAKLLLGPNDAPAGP

human TNFa = human TNFa (human); test: SPR

| Binder | Kd (human IL-17A [1]) [nM] | Kd (human IL-17A [2]) [nM] | binding result (IL-17F) | binding result (IL-17B) | binding result (IL-17C) | binding result (IL-17E) | binding result (IL-17D) | Kd (human TNFa) [nM] |
| --- | --- | --- | --- | --- | --- | --- | --- | --- |
| PRO592 (27-31-C04-sc02) (antibody) DIQMTQSPSSLSASVGDRVTITCQASESIYRYLSWYQQKPGKAPKLLIYLASTLTSGVPSRFSGSGSGTDFTLTISSLQPEDFATYYCQSNFGTASTTYYNTFGGGTKLTVLGGGGGSGGGGSGGGGSGGGGSEVQLVESGGGLVQPGGSLTLSCAASGFSFSGFYYMCWVRQAPGKGLEWIGCIDTGDGTTYYASWAKGRFTISRDNSKNTVYLQMNSLRAEDTAVYYCARDAAYGGYAYPAHGMDLWGPGTLVTVSS | 0.37 | 0.038 | no binding | no binding | no binding | no binding | no binding |  |
| A2 (27-07-G02-sc02) (antibody) DIQMTQSPSSLSASVGDRVTITCQASQTINYWLAWYQQKPGKPPKLLIYRASTLASGVPSRFSGSGSGTDFTLTISSLQPEDFATYYCQNYYYSTSRSYGFGGGTKLTVLGGGGGSGGGGSGGGGSGGGGSEVQLVESGGGLVKPEGSLRLSCAASGFSFSSDYWMCWVRQAPGKGLEWIACIYAGDVDDTDYASWARGRFTISRDNSKNTVYLQMNSLRAEDTAVYYCARVDGFDITYFDLWGQGTLVTVSS | 3 | 0.055 | no binding | no binding | no binding | no binding | no binding |  |
| A3 TNFa arm (antibody) chain 1: EVQLVESGGGLVQPGGSLRLSCAASGFSLSSNAMGWVRQAPGKGLEYIGIISVGGFTYYASWAKGRFTISRDNSKNTVYLQMNSLRAEDTATYFCARDRHGGDSSGAFYLWGQGTLVTVSSASTKGPSVFPLAPSSKSTSGGTAALGCLVKDYFPEPVTVSWNSGALTSGVHTFPAVLQSSGLYSLSSVVTVPSSSLGTQTYICNVNHKPSNTKVDKKVEPKSCGGGGSGGGGSDIQMTQSPSSLSASVGDRVTITCQASQTINYWLAWYQQKPGKAPKLLIYRASTLASGVPSRFSGSGSGTDFTLTISSLQPEDFATYYCQNYYYSTSRSYGFGGGTKLTVLGGGGGSGGGGSGGGGSGGGGSEVQLVESGGGLVQPGGSLRLSCAASGFSFSSDYWMCWVRQAPGKGLEWIGCIYAGDVDDTDYASWARGRFTISRDNSKNTVYLQMNSLRAEDTAVYYCARVDGFDITYFDLWGQGTLVTVSS chain 2: DIQMTQSPSSLSASVGDRVTITCQSSESVYSNNQLSWYQQKPGQPPKLLIYDASDLASGVPSRFSGSGSGTDFTLTISSLQPEDFATYYCAGGFSSSSDTAFGGGTKLTVLGRTRTVAAPSVFIFPPSDEQLKSGTASVVCLLNNFYPREAKVQWKVDNALQSGNSQESVTEQDSKDSTYSLSSTLTLSKADYEKHKVYACEVTHQGLSSPVTKSFNRGECGGGGSGGGGSDIQMTQSPSSLSASVGDRVTINCQASESISSWLAWYQQKPGKRPKLLIYKASTLASGVPSRFSGSGSGTDYTLTISSLQPEDFATYYCQGYYLDSSVDDNVFGGGTKLTVLGGGGGSGGGGSGGGGSGGGGSEVQLVESGGGLVQPGGSLRLSCAASGIDFSTYGISWVRQAPGKGLEWIAYIYPDYGITDYASWVNGRFTISLDNAQNTVYLQMNSLRAEDTAVYYCARSGSYYSRGWGAHYFNLWGQGTLVTVSS |  |  |  |  |  |  |  | < 0.0232 |
| A5 TNFa arm (antibody) chain 1: EVQLVESGGGLVQPGGSLRLSCAASGIDFSTYGISWVRQAPGKGLEWIAYIYPDYGITDYASWVNGRFTISLDNAQNTVYLQMNSLRAEDTAVYYCARSGSYYSRGWGAHYFNLWGQGTLVTVSSASTKGPSVFPLAPSSKSTSGGTAALGCLVKDYFPEPVTVSWNSGALTSGVHTFPAVLQSSGLYSLSSVVTVPSSSLGTQTYICNVNHKPSNTKVDKKVEPKSCGGGGSGGGGSDIQMTQSPSSLSASVGDRVTITCQASQTINYWLAWYQQKPGKAPKLLIYRASTLASGVPSRFSGSGSGTDFTLTISSLQPEDFATYYCQNYYYSTSRSYGFGGGTKLTVLGGGGGSGGGGSGGGGSGGGGSEVQLVESGGGLVQPGGSLRLSCAASGFSFSSDYWMCWVRQAPGKGLEWIGCIYAGDVDDTDYASWARGRFTISRDNSKNTVYLQMNSLRAEDTAVYYCARVDGFDITYFDLWGQGTLVTVSS chain 2: DIQMTQSPSSLSASVGDRVTINCQASESISSWLAWYQQKPGKRPKLLIYKASTLASGVPSRFSGSGSGTDYTLTISSLQPEDFATYYCQGYYLDSSVDDNVFGGGTKLTVLGRTRTVAAPSVFIFPPSDEQLKSGTASVVCLLNNFYPREAKVQWKVDNALQSGNSQESVTEQDSKDSTYSLSSTLTLSKADYEKHKVYACEVTHQGLSSPVTKSFNRGECGGGGSGGGGSDIQMTQSPSSLSASVGDRVTITCQSSESVYSNNQLSWYQQKPGQPPKLLIYDASDLASGVPSRFSGSGSGTDFTLTISSLQPEDFATYYCAGGFSSSSDTAFGGGTKLTVLGGGGGSGGGGSGGGGSGGGGSEVQLVESGGGLVQPGGSLRLSCAASGFSLSSNAMGWVRQAPGKGLEYIGIISVGGFTYYASWAKGRFTISRDNSKNTVYLQMNSLRAEDTATYFCARDRHGGDSSGAFYLWGQGTLVTVSS |  |  |  |  |  |  |  | 0.1 |
| A4 TNFa arm (antibody) chain 1: EVQLVESGGGLVQPGGSLRLSCAASGFSFSSDYWMCWVRQAPGKGLEWIGCIYAGDVDDTDYASWARGRFTISRDNSKNTVYLQMNSLRAEDTAVYYCARVDGFDITYFDLWGQGTLVTVSSASTKGPSVFPLAPSSKSTSGGTAALGCLVKDYFPEPVTVSWNSGALTSGVHTFPAVLQSSGLYSLSSVVTVPSSSLGTQTYICNVNHKPSNTKVDKKVEPKSCGGGGSGGGGSDIQMTQSPSSLSASVGDRVTITCQSSESVYSNNQLSWYQQKPGQPPKLLIYDASDLASGVPSRFSGSGSGTDFTLTISSLQPEDFATYYCAGGFSSSSDTAFGGGTKLTVLGGGGGSGGGGSGGGGSGGGGSEVQLVESGGGLVQPGGSLRLSCAASGFSLSSNAMGWVRQAPGKGLEYIGIISVGGFTYYASWAKGRFTISRDNSKNTVYLQMNSLRAEDTATYFCARDRHGGDSSGAFYLWGQGTLVTVSS chain 2: DIQMTQSPSSLSASVGDRVTITCQASQTINYWLAWYQQKPGKAPKLLIYRASTLASGVPSRFSGSGSGTDFTLTISSLQPEDFATYYCQNYYYSTSRSYGFGGGTKLTVLGRTRTVAAPSVFIFPPSDEQLKSGTASVVCLLNNFYPREAKVQWKVDNALQSGNSQESVTEQDSKDSTYSLSSTLTLSKADYEKHKVYACEVTHQGLSSPVTKSFNRGECGGGGSGGGGSDIQMTQSPSSLSASVGDRVTINCQASESISSWLAWYQQKPGKRPKLLIYKASTLASGVPSRFSGSGSGTDYTLTISSLQPEDFATYYCQGYYLDSSVDDNVFGGGTKLTVLGGGGGSGGGGSGGGGSGGGGSEVQLVESGGGLVQPGGSLRLSCAASGIDFSTYGISWVRQAPGKGLEWIAYIYPDYGITDYASWVNGRFTISLDNAQNTVYLQMNSLRAEDTAVYYCARSGSYYSRGWGAHYFNLWGQGTLVTVSS |  |  |  |  |  |  |  | 0.257 |
